Three substances from publication PMC5468325 can be followed below.

In experiment [1] the target is RXFP1 LDLa-linker (human). Kind of experiment: NMR titration; RXFP1 LDLa-linker titrated with truncated relaxin (Supp Fig. 5).
The target in experiment [2] is RXFP2(1-65) P4F (human). In words: NMR titration; 2D 1H-15N HSQC; increasing concentrations of titrant against 50 µM 15N-labelled RXFP2(1-65) P4F; 25 °C, 50 mM imidazole, 10 mM CaCl2, pH 6.8.
Experiment [3] concerns the target RXFP2 S45A (human).
For experiment [4], the target named is RXFP2 T44A (human).
For experiment [5], the target named is RXFP2-F51A (human).
Experiment [6] concerns the target RXFP2-G42A (human).
The target in experiment [7] is Relaxin family peptide receptor 2 (RXFP2), wild type (human) (UniProt Q8WXD0).
UniProt Q8WXD0, sequence (Q8WXD0 whole entry): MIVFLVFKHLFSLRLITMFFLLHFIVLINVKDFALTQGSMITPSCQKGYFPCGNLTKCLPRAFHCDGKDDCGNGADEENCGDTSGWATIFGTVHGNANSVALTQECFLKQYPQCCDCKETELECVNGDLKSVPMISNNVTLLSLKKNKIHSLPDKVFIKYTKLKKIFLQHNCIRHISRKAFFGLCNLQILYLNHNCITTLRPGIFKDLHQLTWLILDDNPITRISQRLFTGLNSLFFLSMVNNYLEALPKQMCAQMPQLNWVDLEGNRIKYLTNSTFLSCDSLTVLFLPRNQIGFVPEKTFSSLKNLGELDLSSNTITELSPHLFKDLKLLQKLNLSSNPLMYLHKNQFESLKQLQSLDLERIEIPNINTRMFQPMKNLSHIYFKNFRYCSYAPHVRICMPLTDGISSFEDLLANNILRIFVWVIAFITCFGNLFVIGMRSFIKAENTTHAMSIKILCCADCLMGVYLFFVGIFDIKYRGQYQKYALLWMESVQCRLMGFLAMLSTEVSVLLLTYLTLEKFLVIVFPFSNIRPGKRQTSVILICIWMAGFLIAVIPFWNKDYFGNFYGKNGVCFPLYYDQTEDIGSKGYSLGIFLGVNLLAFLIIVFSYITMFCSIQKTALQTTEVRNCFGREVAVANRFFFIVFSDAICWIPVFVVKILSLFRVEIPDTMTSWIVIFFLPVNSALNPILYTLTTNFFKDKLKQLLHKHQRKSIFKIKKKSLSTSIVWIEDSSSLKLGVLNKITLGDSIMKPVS
For experiment [8] the target is unchanged. Kind of experiment: europium-labelled ligand saturation binding on whole cells (time-resolved fluorescence); HEK293T cells transiently transfected with receptor; increasing concentrations of Eu-INSL3 or Eu-H2 relaxin with or without 1 µM unlabeled ligand, 1 h incubation; one-site binding curves.
For experiment [9], the target named is RXFP2 D43A (human). The experiment is described as above.
Experiment [10] has as its target RXFP2 S45A (human). The description is as above.
Experiment [11] has as its target RXFP2 T44A (human). Described as above.
Experiment [12] addresses RXFP2 W47A (human). Described as above.
In experiment [13] the target is RXFP2-F51A (human). Described as above.
For experiment [14], the target named is RXFP2-G42A (human). Described as above.
In experiment [15] the target is RXFP2-G46A (human). The description is as above.

For orientation: Kd means a measure of binding affinity in units of concentration. “B5-29 [B-K9R,A-K9/17R] H2 relaxin (ligand)”: the results for the Kd in experiment [1] and in experiment [2] were 90000 nM and 330000 nM, respectively.

Regarding “Europium (Eu3+)-labelled H2 relaxin (ligand)”, the Emax: maximal cAMP response (pCRE beta-galactosidase reporter, HEK293T) to unlabelled H2 relaxin, max value based on 1 µM activation in experiment [3] is 100%; in experiment [4], 53%; in experiment [5], 18.8%; in experiment [6] it was 75.2%; in experiment [7], 100%. The pEC50 of the cAMP response (pCRE beta-galactosidase reporter, HEK293T) to unlabelled H2 relaxin in experiment [3] was 9.03; in [4] it was 8.63; in [5] it was less than 6; in experiment [6] it was 7.98; in [7], 8.45. The Kd in experiment [8] was 9.96 nM.

In the case of Europium (Eu3+)-labelled INSL3 (ligand), the Emax: maximal cAMP response (pCRE beta-galactosidase reporter, HEK293T) to unlabelled INSL3 (% maximal RXFP2 activity) in experiment [3] came to 92.2; in [4] it was 98.7; in [5], 39.8; in experiment [6], 39.5; in [7], 100. Further, the pEC50 of the cAMP response (pCRE beta-galactosidase reporter, HEK293T) to unlabelled INSL3 in experiment [3] came out at 10.1; in [4] it was 10.5; in experiment [5] it was 9.36; in experiment [6] it was 8.98; in [7], 9.99. In addition, the Kd in experiment [9] was determined as 1.18 nM; in experiment [10] it was 1.05 nM; in [11], 2.11 nM; in experiment [12], 1.5 nM; in [13], 1.55 nM; in [14] it was 1.93 nM. Besides, the Kd in [15] came to 1.51 nM; in experiment [8], 1.07 nM.
